Reference: publication PMC10798138 (Journal of inorganic biochemistry, 2023)

T1: bovine Adrenodoxin reductase (bovine, UniProt P08165 33-492)
T1 sequence: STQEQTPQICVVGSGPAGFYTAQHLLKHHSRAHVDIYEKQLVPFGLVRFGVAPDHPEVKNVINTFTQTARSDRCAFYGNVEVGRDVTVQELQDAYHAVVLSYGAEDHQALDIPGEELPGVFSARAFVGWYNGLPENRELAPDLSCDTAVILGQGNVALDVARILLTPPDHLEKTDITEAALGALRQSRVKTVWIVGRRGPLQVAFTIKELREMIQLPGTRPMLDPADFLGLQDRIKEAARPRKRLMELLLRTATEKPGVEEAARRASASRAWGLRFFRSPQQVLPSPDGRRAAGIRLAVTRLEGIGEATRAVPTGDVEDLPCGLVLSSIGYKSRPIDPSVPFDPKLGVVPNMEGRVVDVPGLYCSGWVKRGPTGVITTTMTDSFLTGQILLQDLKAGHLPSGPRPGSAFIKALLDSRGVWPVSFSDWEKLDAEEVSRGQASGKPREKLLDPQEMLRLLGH


What was measured:
[1] = target: the molecule itself; assay: SEC
[2] = target: T1, bovine Adrenodoxin reductase; assay: NMR titration

Binder | binding result [1] | binding result [2]
full-length human Adrenodoxin with the L80V mutation (natural protein, UniProt P10109 62-184, looked up) SSEDKITVHFINRDGETLTTKGKVGDSLLDVVVENNLDIDGFGACEGTLACSTCHLIFEDHIYEKLDAITDEENDMLDVAYGLTDRSRLGCQICLTKSMDNMTVRVPETVADARQSIDVGKTS | binds | –
full-length human Adrenodoxin (Ferredoxin 1), hAdx (2–124) (natural protein, UniProt P10109 62-184, looked up) SSEDKITVHFINRDGETLTTKGKVGDSLLDVVVENNLDIDGFGACEGTLACSTCHLIFEDHIYEKLDAITDEENDMLDLAYGLTDRSRLGCQICLTKSMDNMTVRVPETVADARQSIDVGKTS | – | binds
